Results on 1 substance are retold here after patent US7479482B2 (priority 2001, dated 2009).

Like-named read-outs stand apart in the source and are kept apart here.

One data set deals with Tg2576 mice. The following applies: mouse, in vivo.
Data set [1] is classed as physicochemical.
Data set [2] concerns human neuroblastoma cell line (SK-N-SH).

With “Aβ1-42: amyloid β peptide 1-42, control peptide and comparison immunogen”, the “radial arm maze skills” value in the data set with Tg2576 mice is on record as “had the radial arm maze skills of the positive control”. Also, in data set [1] (Time 0 hr), the “alpha (secondary structure by CD)” value is 9%, the “beta-sheet (secondary structure by CD)” value is 36% and the “random (secondary structure by CD)” value came out at 55%. In data set [1] (Time 24 hr), the “alpha (secondary structure by CD)” value is reported as 9%, the “beta-sheet (secondary structure by CD)” value was 40% and the “random (secondary structure by CD)” value is 51%. Also, in data set [1] (Time 96 hr), the “alpha (secondary structure by CD)” value worked out at 5%, the “beta-sheet (secondary structure by CD)” value was found to be 55% and the “random (secondary structure by CD)” value is reported as 40%. For the same substance, in data set [2], the “aggregates visible under the microscope in culture wells” value is recorded as “aggregates were visible” and the “toxicity to neuroblastoma cells (MTT)” value is “toxic”.
